Bridge positions count the residues as written; N and C are the ends. Ends that are not written are not given here. * marks the point of attachment. Biotin = O=C1N[C@H]2[C@H](CS[C@H]2CCCCC(=O)*)N1
B1: FMC63 IgG (antibody, V domains shown)
VH: EVKLQESGPGLVAPSQSLSVTCTVSGVSLPDYGVSWIRQPPRKGLEWLGVIWGSETTYYNSALKSRLTIIKDNSKSQVFLKMNSLQTDDTAIYYCAKHYYYGGSYAMDYWGQGTSVTVSS
VL: DIQMTQTTSSLSASLGDRVTISCRASQDISKYLNWYQQKPDGTVKLLIYHTSRLHSGVPSRFSGSGSGTDYSLTISNLEQEDIATYFCQQGNTLPYTFGGGTKLEIT
notes: Murine monoclonal antibody to human CD19; also called FMC63 IgG antibody; biotinylated FMC63 IgG

Key:
FMC63 IgG = target: B1; experiment: ELISA with FMC63 IgG; ELISA with FMC63 IgG (FIG. 7); micromolar range
[1] = target: T1, FMC63 Mimotope Mutant RLCPWSACREL; experiment: flow cytometry of yeast clones stained with FMC63 IgG; stacked histograms, no unstained control drawn
T1 construct: also called G9 with one alanine inserted between the cysteines
T1 peptide: RLCPWSACREL
Method: (§1) Specifically, a representative mimotope, […] […] To generate mutations, two complementary oligos with the codon replaced at the desired site were denatured at 95° C. and annealed by slow cooling to 25° C. (decreasing by 0.5° C./second). The annealed oligos were treated with T4 PNK (T4 Polynucleotide Kinase) to add a terminal phosphate, and then ligated into digested pCT-CON2 vector. Positive clones having the correct oligo inserted were tested and transformed into competent EBY100 yeast cells.

[2] = target: T2, FMC63 Mimotope Mutant RLCPWSAACREL; experiment: as above
T2 construct: also called G9 with two alanines inserted between the cysteines
T2 peptide: RLCPWSAACREL
Method: as §1

[3] = target: T3, FMC63 Mimotope (F8) RLCPWDCREL; experiment: flow cytometry of yeast clones titrated with biotinylated FMC63 IgG, MFI (geometric mean); axis without unit, nM by the legend paragraph 211
T3 peptide: RLCPWDCREL

[4] = target: T4, FMC63 Mimotope (G11) RLCPWNCREL; experiment: as above
T4 peptide: RLCPWNCREL

[5] = target: T5, FMC63 Mimotope (H11) RICPWSCREL; experiment: as above
T5 peptide: RICPWSCREL

[6] = target: T6, FMC63 Mimotope (H1) RVCPWSCMPI; experiment: as above
T6 construct: Not the 1D3 mimotope that is also called H1
T6 peptide: RVCPWSCMPI

[7] = target: T7, FMC63 Mimotope (F12) RICPWNCKEL; experiment: as above
T7 construct: also called F12 mimotope
T7 peptide: RICPWNCKEL

[8] = target: T8, FMC63 Mimotope (B7) RICPWSCMVV; experiment: as above
T8 peptide: RICPWSCMVV

[9] = target: T9, FMC63 Mimotope (E6) RLCPWSCVPI; experiment: as above
T9 peptide: RLCPWSCVPI

[10] = target: T10, FMC63 Mimotope (H8) RICPWACVEL; experiment: as above
T10 peptide: RICPWACVEL

[11] = target: T11, FMC63 Mimotope (C5) RMCPWSCYEL; experiment: as above
T11 peptide: RMCPWSCYEL

[12] = target: T12, FMC63 Mimotope (C7) RLCPWACQEQ; experiment: as above
T12 peptide: RLCPWACQEQ

[13] = target: T13, FMC63 Mimotope Mutant RLCPWSCRAL; experiment: flow cytometry of yeast clones stained with FMC63 IgG (5 µM by paragraph 811); stacked histograms, no unstained control drawn
T13 construct: also called G9 X4 (Glu 9) to Ala
T13 peptide: RLCPWSCRAL
Method: as §1

[14] = target: T14, FMC63 Mimotope Mutant RLCPWACREL; experiment: as above
T14 construct: also called G9 X2 (Ser 6) to Ala
T14 peptide: RLCPWACREL
Method: as §1

[15] = target: T15, FMC63 Mimotope Mutant RACPWSCREL; experiment: as above
T15 construct: also called G9 X1 (Leu 2) to Ala
T15 peptide: RACPWSCREL
Method: as §1

[16] = target: T16, FMC63 Mimotope (G9) RLCPWSCREL; experiment: as above
T16 construct: Parent of the alanine scan
T16 peptide: RLCPWSCREL
Method: as §1

[17] = target: T17, FMC63 Mimotope Mutant RLCPWSCAEL; experiment: as above
T17 construct: also called G9 X3 (Arg 8) to Ala
T17 peptide: RLCPWSCAEL
Method: as §1

[18] = target: T18, FMC63 Mimotope Mutant RLCPWSCREA; experiment: as above
T18 construct: also called G9 X5 (Leu 10) to Ala
T18 peptide: RLCPWSCREA
Method: as §1

[19] = target: T19, biotinylated F12 derivative GGGSASRICPWNCKEL (not fully specified (bridges); cysteine pairing not given here); experiment: ELISA, biotinylated peptide on a streptavidin plate, OD(450nm) against the FMC63 IgG concentration (nM)
T19 construct: Free peptide loaded on a streptavidin coated plate for ELISA
T19 peptide: Biotin-GGGSASRICPWNCKEL

[20] = target: T20, biotinylated F12 derivative GGGGSGGGGSGGGGSASRICPWNCKEL (not fully specified; biotinylated on the N-terminus); experiment: as above
T20 construct: Free peptide loaded on a streptavidin coated plate for ELISA
T20 peptide: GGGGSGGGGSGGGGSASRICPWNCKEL

[21] = target: T21, biotinylated F12 derivative GGSGGGGSASRICPWNCKEL (not fully specified; biotinylated on the N-terminus); experiment: as above
T21 construct: Free peptide loaded on a streptavidin coated plate for ELISA
T21 peptide: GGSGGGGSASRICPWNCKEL

[22] = target: T22, biotinylated F12 derivative GSGGGGSGGGGSASRICPWNCKEL (not fully specified; biotinylated on the N-terminus); experiment: as above
T22 construct: Free peptide loaded on a streptavidin coated plate for ELISA
T22 peptide: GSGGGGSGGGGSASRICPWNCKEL

[23] = target: T23, biotinylated F12 mimotope RICPWNCKEL (no flanking residues) (not fully specified (bridges); cysteine pairing not given here); experiment: as above
T23 construct: Free peptide loaded on a streptavidin coated plate for ELISA; also called Bio-F12; F12 without flanking residues
T23 peptide: Biotin-RICPWNCKEL

[24] = target: T24, biotinylated F12 derivative SASRICPWNCKEL (not fully specified (bridges); cysteine pairing not given here); experiment: as above
T24 construct: Free peptide loaded on a streptavidin coated plate for ELISA
T24 peptide: Biotin-SASRICPWNCKEL

RHCPWNCSLL (disulfide 3-7 (inferred), Aga2p-HA-(G4S)3-AS-peptide, cf) [FMC63 Mimotope (A1) RHCPWNCSLL]
Kd (FMC63 IgG): ~1400 nM

B1
binding result [1]: no binding
binding result [2]: no binding
binding result [3]: binds
binding result [4]: binds
binding result [5]: binds
binding result [6]: binds
binding result [7]: binds
binding result [8]: binds
binding result [9]: binds
binding result [10]: binds
binding result [11]: binds
binding result [12]: binds
binding result [13]: binds
binding result [14]: binds
binding result [15]: binds
binding result [16]: binds
binding result [17]: binds
binding result [18]: binds
binding result [19]: binds
binding result [20]: binds
binding result [21]: binds
binding result [22]: binds
binding result [23]: binds
binding result [24]: binds

Reference: US20210338833A1 (MIT, published 2021)
